# Data from paper PMC5308204 (Nature genetics, 2010).
# T1: HA-tagged VPS33B (human, UniProt Q9H267 1-617)
# T1 sequence (looked up): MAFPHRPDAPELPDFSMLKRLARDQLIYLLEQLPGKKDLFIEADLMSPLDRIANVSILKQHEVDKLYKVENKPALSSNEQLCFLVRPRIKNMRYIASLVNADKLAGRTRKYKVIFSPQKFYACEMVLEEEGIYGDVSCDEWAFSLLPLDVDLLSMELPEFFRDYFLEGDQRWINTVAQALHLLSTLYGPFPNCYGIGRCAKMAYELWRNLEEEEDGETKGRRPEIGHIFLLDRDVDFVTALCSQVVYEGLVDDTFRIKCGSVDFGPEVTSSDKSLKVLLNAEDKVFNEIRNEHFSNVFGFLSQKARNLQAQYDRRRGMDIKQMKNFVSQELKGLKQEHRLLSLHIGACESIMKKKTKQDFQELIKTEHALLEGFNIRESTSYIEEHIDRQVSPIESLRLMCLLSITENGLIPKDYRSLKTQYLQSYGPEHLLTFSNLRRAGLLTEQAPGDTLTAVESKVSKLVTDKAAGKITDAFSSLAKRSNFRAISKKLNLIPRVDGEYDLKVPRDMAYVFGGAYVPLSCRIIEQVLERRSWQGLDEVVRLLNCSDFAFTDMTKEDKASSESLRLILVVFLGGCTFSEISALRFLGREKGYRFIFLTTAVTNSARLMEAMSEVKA
# T2: HA-tagged VPS33B (L30P) mutant (human, UniProt Q9H267 1-617, L30P)
# T2 sequence (looked up): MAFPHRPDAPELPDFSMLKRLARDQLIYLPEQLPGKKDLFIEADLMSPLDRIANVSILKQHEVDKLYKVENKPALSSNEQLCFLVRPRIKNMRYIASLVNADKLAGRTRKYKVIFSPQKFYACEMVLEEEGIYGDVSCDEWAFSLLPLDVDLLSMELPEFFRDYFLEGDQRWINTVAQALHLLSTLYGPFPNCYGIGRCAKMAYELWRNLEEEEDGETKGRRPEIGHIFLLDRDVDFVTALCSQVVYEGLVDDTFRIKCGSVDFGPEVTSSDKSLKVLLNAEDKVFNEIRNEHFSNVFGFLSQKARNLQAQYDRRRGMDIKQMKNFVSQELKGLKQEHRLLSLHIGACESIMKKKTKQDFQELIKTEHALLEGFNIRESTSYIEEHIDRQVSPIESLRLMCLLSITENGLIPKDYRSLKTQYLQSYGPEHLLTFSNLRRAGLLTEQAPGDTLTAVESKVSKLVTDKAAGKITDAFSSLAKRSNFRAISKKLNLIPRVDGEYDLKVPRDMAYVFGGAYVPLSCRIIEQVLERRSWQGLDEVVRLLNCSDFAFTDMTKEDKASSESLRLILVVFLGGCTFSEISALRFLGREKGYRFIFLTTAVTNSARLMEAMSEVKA
# T3: HA-tagged VPS33A (UniProt Q96AX1 1-596)
# T3 sequence (looked up): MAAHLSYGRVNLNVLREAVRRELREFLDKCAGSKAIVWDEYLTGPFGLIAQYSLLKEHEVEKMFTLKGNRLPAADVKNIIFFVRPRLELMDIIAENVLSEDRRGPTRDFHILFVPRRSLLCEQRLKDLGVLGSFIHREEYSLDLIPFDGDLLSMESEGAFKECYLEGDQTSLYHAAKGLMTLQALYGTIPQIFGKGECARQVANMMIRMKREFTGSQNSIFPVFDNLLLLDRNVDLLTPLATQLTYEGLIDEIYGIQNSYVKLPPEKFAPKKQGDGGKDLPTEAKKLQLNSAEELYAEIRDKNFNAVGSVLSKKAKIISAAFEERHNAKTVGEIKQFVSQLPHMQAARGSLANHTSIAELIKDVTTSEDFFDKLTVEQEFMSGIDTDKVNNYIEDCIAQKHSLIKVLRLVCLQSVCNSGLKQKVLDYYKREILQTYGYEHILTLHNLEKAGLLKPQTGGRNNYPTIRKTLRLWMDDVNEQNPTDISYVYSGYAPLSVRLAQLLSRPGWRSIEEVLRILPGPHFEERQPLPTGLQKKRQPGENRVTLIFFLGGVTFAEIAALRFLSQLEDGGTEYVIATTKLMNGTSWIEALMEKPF
# How the values were obtained:
# Test in all cases: co-IP
# HA-tagged VPS33B = target: T1, HA-tagged VPS33B
# [1] = target: T2, HA-tagged VPS33B (L30P) mutant
# HA-tagged VPS33A = target: T3, HA-tagged VPS33A
percent of the Myc-tagged input recovered (HA-tagged VPS33B),percent of the Myc-tagged input recovered [1],percent of the Myc-tagged input recovered (HA-tagged VPS33A),Binder
28.6%,23.8%,,"Myc-tagged VIPAR (natural protein, human, UniProt Q9H9C1 1-493, looked up) MNRTKGDEEEYWNSSKFKAFTFDDEDDELSQLKESKRAVNSLRDFVDDDDDDDLERVSWSGEPVGSISWSIRETAGNSGSTHEGREQLKSRNSFSSYAQLPKPTSTYSLSSFFRGRTRPGSFQSLSDALSDTPAKSYAPELGRPKGEYRDYSNDWSPSDTVRRLRKGKVCSLERFRSLQDKLQLLEEAVSMHDGNVITAVLIFLKRTLSKEILFRELEVRQVALRHLIHFLKEIGDQKLLLDLFRFLDRTEELALSHYREHLNIQDPDKRKEFLKTCVGLPFSAEDSAHIQDHYTLLERQIIIEANDRHLESAGQTEIFRKHPRKASILNMPLVTTLFYSCFYHYTEAEGTFSSPVNLKKTFKIPDKQYVLTALAARAKLRAWNDVDALFTTKNWLGYTKKRAPIGFHRVVEILHKNNAPVQILQEYVNLVEDVDTKLNLATKFKCHDVVIDTYRDLKDRQQLLAYRSKVDKGSAEEEKIDALLSSSQIRWKN"
,,28.2%,"Myc-tagged VPS16 (natural protein, human, UniProt Q9H269 1-839, looked up) MDCYTANWNPLGDSAFYRKYELYSMDWDLKEELRDCLVAAAPYGGPIALLRNPWRKEKAASVRPVLDIYSASGMPLASLLWKSGPVVSLGWSAEEELLCVQEDGAVLVYGLHGDFRRHFSMGNEVLQNRVLDARIFHTEFGSGVAILTGAHRFTLSANVGDLKLRRMPEVPGLQSAPSCWTVLCQDRVAHILLAVGPDLYLLDHAACSAVTPPGLAPGVSSFLQMAVSFTYRHLALFTDTGYIWMGTASLKEKLCEFNCNIRAPPKQMVWCSRPRSKERAVVVAWERRLMVVGDAPESIQFVLDEDSYLVPELDGVRIFSRSTHEFLHEVPAASEEIFKIASMAPGALLLEAQKEYEKESQKADEYLREIQELGQLTQAVQQCIEAAGHEHQPDMQKSLLRAASFGKCFLDRFPPDSFVHMCQDLRVLNAVRDYHIGIPLTYSQYKQLTIQVLLDRLVLRRLYPLAIQICEYLRLPEVQGVSRILAHWACYKVQQKDVSDEDVARAINQKLGDTPGVSYSDIAARAYGCGRTELAIKLLEYEPRSGEQVPLLLKMKRSKLALSKAIESGDTDLVFTVLLHLKNELNRGDFFMTLRNQPMALSLYRQFCKHQELETLKDLYNQDDNHQELGSFHIRASYAAEERIEGRVAALQTAADAFYKAKNEFAAKATEDQMRLLRLQRRLEDELGGQFLDLSLHDTVTTLILGGHNKRAEQLARDFRIPDKRLWWLKLTALADLEDWEELEKFSKSKKSPIGYLPFVEICMKQHNKYEAKKYASRVGPEQKVKALLLVGDVAQAADVAIEHRNEAELSLVLSHCTGATDGATADKIQRARAQAQKK"
